# Reference: the RNAGym collection of RNA variant scans (doi:10.7554/elife.90254)
# B1: LINE1-full (parent)
# chain: UACGUAGGUGGUUUUCCCCUGAUAGUGCUAAGGGGGCCUGGAAGUUUGGACUGGGCAGAGCUCAACACAGCGUGGCAAAGUGGCUGUGGCUAGACUGCCUCUCUGGAUUCCUCGUCACUCAGCAGGGCAUCUCUGAGAGAAAUGCC
# Variants of: B1
# Assay: self-cleavage, relative activity (ratio to wild type); higher = more cleavage; in vitro, sequencing; the parent is a self-cleaving ribozyme
row,Variant,self-cleavage
1,U9C U112G,2.63
2,U9C A140G,1.19
3,U9C A140U,1.35
4,U9C A50G,1
5,U9C A50U,1.38
6,G8U,1.39
7,G8A,1.45
8,G8C,1.66
9,U9A U96C,0.19
10,U9C A117C,1.41
11,G7U A78G,0.88
12,U9G U96C,0
13,G8U U115C,1.93
14,U9C G25U,0.96
15,U9A C123U,1.11
16,U9A C37G,0.82
17,G8A U112C,1.03
18,U9C G54A,0.65
19,U9C U132C,1.47
20,U9C U96G,0
21,G8A U96C,0.15
22,G8A U96A,0.08
23,U9C U15G,1.09
24,U9C U15A,0.5

row,Variant,self-cleavage
1,U9C U15C,1.28
2,U9A U115A,1.09
3,U9A C120U,1.12
4,G8U U29C,1.99
5,U9C A30G,1.21
6,U9C A30U,0.87
7,U9A U130C,1.07
8,U9A U130A,1.23
9,U9A A77G,1.61
10,U9A G60A,0.1
11,U9A G60U,0
12,U9A U100A,0.72
13,U9G U102C,1.26
14,G10A U100C,0.49
15,G10A A78G,0.91
16,U9C A57U,0.24
17,U9C A78U,2.65
18,U9C A78C,1.5
19,U9G A138U,1.51
20,G8A C113A,1.31
21,G8A U91C,0.69
22,U9G U47C,0.54
23,U9A U109A,0.14
24,G8A U9C,0.63

row,Variant,self-cleavage
1,U9C U104A,1.4
2,G7U U73A,1.14
3,G8U A136G,0.46
4,U9A U119C,1.04
5,U9C C116G,1.21
6,G8U U119A,1.51
7,U9C C131U,1.6
8,G8U U39A,1.12
9,G8U U14C,2.04
10,G7U A79G,0.87
11,U9C G75A,1.4
12,G7A U132C,1.2
13,U9G U119C,1.32
14,U9G A117U,1.07
15,U9G A117G,1.31
16,U9C A138U,1.92
17,G8A A43G,1.08
18,U9A U73A,1.29
19,U9A U73C,0.94
20,G10A A64G,0.22
21,G10A A117U,1.21
22,U9C C18U,1
23,U9A A94U,0.39
24,U9A U46A,1.22

row,Variant,self-cleavage
1,U9A A107G,1.02
2,U9C U119A,1.36
3,U9C U119C,1.36
4,U9A A24G,0.93
5,G10A U20C,1.6
6,U9A A50G,1.03
7,U9A A50U,0.45
8,G8A A79G,1.36
9,G7U U46C,0.47
10,G10A A65G,0.02
11,G10A A65U,0.14
12,G7U U14C,1.39
13,U9A G125U,0.15
14,U9C G35U,1.13
15,U9C C17A,1.31
16,G10A G48U,0.89
17,U9A C38A,1.26
18,U9A C111G,1.11
19,U9G A136G,0.68
20,G7C A142C,1.1
21,U9G U85C,0.38
22,U9A A121U,2.38
23,U9A A121G,1.56
24,G10A U52A,0.97

row,Variant,self-cleavage
1,G8A C120U,2.87
2,G8U U109C,0.67
3,U9A A92G,0.15
4,U9A C110U,1.06
5,U9G A107U,0.46
6,U9G A107G,1.13
7,U9A A22G,1.53
8,G10A U102C,1.39
9,G7U U104C,0.9
10,U9G G93U,0.05
11,G10A U73A,1.55
12,U9G U13C,0.65
13,U9G U13G,1.31
14,G10A U104A,0.91
15,U9C A22G,1.03
16,U9A U20C,0.88
17,U9C G60C,0.07
18,G10A A142G,1.42
19,U9C C51A,0.63
20,G8C A141U,1.33
21,U9C G58A,0.04
22,U9C G83U,0.94
23,G7U A64G,0.35
24,G8A G135A,1.23

row,Variant,self-cleavage
1,U9A A69U,0.06
2,U9C U91A,0.7
3,U9C U91C,1.75
4,U9C C98U,0.59
5,G8A G82A,1.71
6,U9A C103U,0.84
7,G8C A22G,0
8,U9A G97A,0.12
9,G10A A67G,0.42
10,U9A U14G,0
11,U9A U14C,0.89
12,G8U G35A,1.41
13,U9C A24G,1.04
14,G7A U112C,1.22
15,G8U C145U,2.38
16,U9C G53A,1.2
17,U9C A64C,0.35
18,U9C A64U,0.6
19,U9G U112C,0.73
20,G8A G49A,1.07
21,U9C G36C,2.16
22,U9G G74A,0.88
23,U9C A129C,1.24
24,U9C A129U,1.27

row,Variant,self-cleavage
1,U9C A129G,1.66
2,G10A A31G,0.45
3,G8A A117C,1.03
4,U9C A43U,0.77
5,U9C A124G,1.15
6,U9C A124C,2.53
7,U9C U23A,1.22
8,U9A G144A,1.19
9,G8A A57U,0.16
10,G10A A141G,0.94
11,G10A A69G,0.64
12,U9C U20C,1.05
13,U9C U20G,1.16
14,U9C U45G,1.56
15,U9G A65G,0.25
16,U9A G33U,1.6
17,G8A U115C,1.33
18,G7C U85A,0.2
19,U9C A121G,1.27
20,U9G A142G,0.95
21,U9C G139A,1.09
22,G8U C128U,1.14
23,U9C G55A,0.48
24,U9C G55U,0.37

row,Variant,self-cleavage
1,U9A U91A,0.53
2,U9A U91C,0.36
3,U9A U108A,1.01
4,U9C C120U,1.3
5,U9C U62C,0.18
6,G8C U81C,1.08
7,U9C G72A,1.34
8,U9A A138U,1.01
9,G8A G125U,1.53
10,U9C A65G,0.16
11,U9C C19A,1.55
12,U9C C19U,1.65
13,U9C U81C,1.21
14,U9C U81A,1.95
15,U9C C113U,1.08
16,U9C C113A,1.2
17,G10A G21A,1.14
18,U9G U100C,1.61
19,U9G U100A,0.86
20,U9A A140U,1.08
21,G7U A94G,0.36
22,G8U A59G,0.12
23,G8A G34U,1.22
24,U9G A124U,1.12

row,Variant,self-cleavage
1,G8A A124G,1.04
2,G10A A129U,0.66
3,G10A G11A,1.61
4,U9C U100A,1.41
5,U9C U100C,1.51
6,G8A G70A,0.17
7,U9A A136U,0.81
8,U9A U15C,1.08
9,U9C C90G,0.09
10,U9C C90U,0.09
11,G8U U81A,2.37
12,G8U A129G,0.32
13,U9C G127U,1.45
14,G8A U15C,1.97
15,G7C U91C,0
16,U9A U12A,0.37
17,U9A U29C,1.19
18,U9A U29A,0.79
19,G7U A69G,0.94
20,U9A C131U,0.79
21,U9C U29C,1.72
22,G10A A57U,0.07
23,G10A U15C,1.2
24,U9A G70A,0.12

row,Variant,self-cleavage
1,U9A A59G,0.18
2,U9A U45G,1.05
3,U9C U143A,1.28
4,U9C U108C,1.54
5,G7U C123G,1.13
6,G7A U134C,1.17
7,U9A C98U,0.28
8,G10A A30G,1.19
9,U9C G122C,0
10,G8A U85C,0.25
11,U9C A79U,1.66
12,U9C A79C,1.2
13,U9C A79G,1.35
14,G7U A141G,1.62
15,U9C U26A,1.14
16,U9C U14C,1.18
17,U9C G21U,1.37
18,G10A G36C,1.89
19,U9C G11A,1.07
20,G8C U45C,2.04
21,U9G U12A,0.16
22,U9C G105A,1.47
23,U9A C116U,0.95
24,U9C C56U,0.37

row,Variant,self-cleavage
1,U9A A129C,1.22
2,U9A A129G,1.24
3,U9G U115C,0.29
4,U9A A43U,0.61
5,U9A A43G,1.1
6,U9A U134A,1.17
7,G7U G11C,1.02
8,U9A U104G,0.98
9,U9A U104A,1.29
10,U9C U85C,0.3
11,U9C U85A,0.17
12,U9A U87A,0.15
13,U9A U87C,0.19
14,G10A G35A,0.92
15,G8A A64G,0.42
16,G8A U12C,1.17
17,G10A G97A,0.09
18,U9C G114A,1.42
19,G8A C61U,0.06
20,U9G C146U,1.29
21,U9A A64G,0.26
22,U9A A79G,1.01
23,U9A A79U,1.59
24,U9A,1.05

row,Variant,self-cleavage
1,U9C,1.22
2,U9G,0.93
3,U9A U23C,0.93
4,U9C G44A,0.69
5,U9A G88A,0.12
6,G7A U109A,1.49
7,U9A U62C,0.09
8,U9C C118U,0.92
9,U9C U47C,1.45
10,U9C U47A,1.18
11,U9C A69U,0.06
12,G8A A22G,1
13,U9C A77U,1.19
14,G8U U9A,2.01
15,G7U U39A,1.67
16,U9G A77G,1.55
17,U9C G34U,1.09
18,U9C G49U,1.08
19,U9C G86A,0.16
20,U9C A31G,0.91
21,U9C A31U,1.2
22,U9C A42C,0.88
23,G8A A30G,0.67
24,U9G U14C,0.68

row,Variant,self-cleavage
1,U9A A67U,0.25
2,G10A U29C,1.12
3,G10A U109C,1.08
4,U9A A65G,0.21
5,G7U A140U,1.34
6,U9A C19U,0.71
7,U9C U13A,1.11
8,U9C U13C,1.19
9,U9C U73C,1.27
10,U9C U73A,1.58
11,G8A A69C,0.04
12,U9C A59G,0.11
13,U9A G36A,1.09
14,U9C C95U,0.19
15,U9C G82A,2.23
16,G8A A138G,2.47
17,G8U A42U,1.17
18,U9C G10A,0.86
19,U9C U109C,0.99
20,U9C U109A,1.37
21,G7U A77U,1.04
22,U9A G40A,1
23,U9A A124C,1.74
24,U9A A124G,1.02

row,Variant,self-cleavage
1,U9C U52G,1.69
2,U9C U130G,0.74
3,U9C U130A,1.16
4,U9C U130C,1.3
5,G7U U15A,0.97
6,U9C G80A,1.65
7,U9C G33A,1.01
8,G8A U109C,1.21
9,G10A C131U,1.19
10,G8A C37A,0.87
11,G10A U96C,0.16
12,U9A G54A,0.65
13,U9C A92U,0.28
14,U9C A92G,0.1
15,U9C A92C,0.48
16,G7U U62C,0.04
17,G8A U87C,0.19
18,G10A U12G,0.83
19,G7U A138G,1.31
20,G8A U47C,1.82
21,G8A G44A,1.08
22,U9C U134C,1.05
